The target of experiment [1] is T1, human CD30 (human, UniProt P28908 19-595).
T1 construct: also called huCD30; TNFRSF8
T1 sequence: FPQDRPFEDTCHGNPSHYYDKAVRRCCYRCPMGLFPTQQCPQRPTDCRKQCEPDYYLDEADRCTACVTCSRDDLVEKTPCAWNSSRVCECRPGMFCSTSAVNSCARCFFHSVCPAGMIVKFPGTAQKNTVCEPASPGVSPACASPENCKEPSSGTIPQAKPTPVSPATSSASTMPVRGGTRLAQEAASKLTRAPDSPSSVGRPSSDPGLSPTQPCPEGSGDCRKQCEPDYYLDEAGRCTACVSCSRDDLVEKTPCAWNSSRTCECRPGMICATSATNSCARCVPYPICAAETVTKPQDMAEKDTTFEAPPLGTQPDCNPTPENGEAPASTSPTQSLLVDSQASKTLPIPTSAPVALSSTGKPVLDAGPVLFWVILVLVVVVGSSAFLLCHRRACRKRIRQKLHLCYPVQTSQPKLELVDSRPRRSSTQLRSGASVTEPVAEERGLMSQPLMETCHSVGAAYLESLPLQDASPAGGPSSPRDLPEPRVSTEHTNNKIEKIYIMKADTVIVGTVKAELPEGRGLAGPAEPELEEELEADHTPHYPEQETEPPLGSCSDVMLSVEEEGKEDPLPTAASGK
Description: flow cytometry, HDLM-2 cells. On the procedure: (§1) Binding of CD3×CD30 bispecific antibodies to two CD30-expressing human tumor cell lines SU-DHL-1 (ALCL; ATCC, cat. no. ACC 356) and HDLM-2 (HL; ATCC, cat. no. CRL-2965) was analyzed […] by flow cytometry.
(§2) Cells (3×10⁴ cells/well) were incubated in polystyrene 96-well round-bottom plates (Greiner bio-one, cat. no. 650180) with serial dilutions of antibodies (range 0.0046 to 10 μg/mL in 3-fold dilution steps) in 50 μL staining buffer at 4° C. for 30 min. After washing twice in staining buffer, cells were incubated with 50 μL secondary antibody at 4° C. for 30 min. […] Next, cells were washed twice in staining buffer, resuspended in 100 μL staining buffer supplemented with TO-PRO-3 iodide (Thermo Fisher Scientific; cat. no. T3605; 1:8000 dilution) and analyzed on a FACSCelesta flow cytometer (BD Biosciences, USA). Live cells were gated based on FSC/SSC and absence of TOPRO-3 staining. Binding curves were analyzed by non-linear regression of log-transformed data (sigmoidal dose-response with variable slope, four parameters) using GraphPad Prism V7.02 software (GraphPad Software, San Diego, CA, USA).
In general terms: A flow cytometer gives signals particle by particle.

The target of experiment [2] is T1, human CD30. Description: flow cytometry, SU-DHL-1 cells. On the procedure: as §1, §2
In experiment [3] the target is T1, human CD30. As to the kind of experiment: flow cytometry, Expi293F cells transfected with human CD30. The method, then:
Cells (3×10⁴ cells/well) were incubated in polystyrene 96-well round-bottom plates (Greiner bio-one, cat. no. 650180) with serial dilutions of antibodies (ranging from 0.005 to 10 μg/mL in 3-fold dilution steps) in 100 μL staining buffer at 4° C. for 30 min. Experiments were performed in technical duplicate. After washing twice in staining buffer, cells were incubated in 50 μL secondary antibody at 4° C. for 30 min. As a secondary antibody, R-PE-conjugated goat-anti-human IgG (Jackson ImmunoResearch, UK; cat. no. 109⁻¹¹⁶-098) diluted 1:400 in staining buffer was used. Cells were washed twice in staining buffer, resuspended in 30 μL staining buffer containing 0.4% EDTA and analyzed on an iQue Screener (Intellicyt Corporation, USA). Binding curves were analyzed using non-linear regression (sigmoidal dose-response with variable slope) using GraphPad Prism V9.0.0 software (GraphPad Software, San Diego, CA, USA).

In experiment [4] the target is T1, human CD30. As to the kind of experiment: cell-based or functional assay.

B1: IgG1-CD30-T215-FEAR (antibody, V domains shown)
VH: QVTLKESGPGILQPSQTLSLTCSFSGFSLSVSGMGVSWIRQPSGKGLEWLAHIHWDDDRRSNPSLRSRLTISKDTSNNQVFLKITSVDTADTATYYCARRPDLYGNYFFFDFWGQGTTLTVSS
VL: DIVMTQSQKFMSTSVGDRVSVTCKASQNVFTNVAWYQQKLGQSPKPLIYSASYRYSGVPDRFTGSGSGTDFTLTISDVQSEDLAEYFCQQYNSYPVTFGAGTKLELKR
notes: Monospecific, bivalent parental antibody
For orientation: EC50 (read off the curve) means the concentration needed to bring the measured effect to its halfway point. High values mean lower potency in that assay, low ones higher potency in that assay. Regarding B1, the “EC50 (read off the curve)” value in experiment [1] is ~0.2 mg/L; in experiment [2] it was ~0.1 mg/L.

B2: IgG1-CD30-HeFi-I-FEAR (antibody, V domains shown)
VH: EVKLVESGGGLVQPGGSLRLSCATSGFTFSDYYMNWVRQPPGKALEWLGFIRNKANGYTTEFSASVMGRFTISRDDSQSILYLQMNTLRAEDSATYYCARDPPYGNPHYYAMDYWGQGTSVTVSS
VL: DIVLTQSPASLAVSLGQRATISCRASKSVSASGYNYMHWYQQKAGQPPKLLIHLASNLESGVPARFSGSGSGTDFTLNIHPVEEEDASTYYCQHSGELPFTFGSGTKLEIKR
notes: as for B1
Regarding B2, the binding result in experiment [3] is given as “binds”.

B3: bsG1-huCD3-FEALxCD30-T215-FEAR (bispecific antibody, human IgG1, kappa, lambda)
heavy 1: not shown
light 1: not shown
heavy 2: not shown
light 2: DIVMTQSQKFMSTSVGDRVSVTCKASQNVFTNVAWYQQKLGQSPKPLIYSASYRYSGVPDRFTGSGSGTDFTLTISDVQSEDLAEYFCQQYNSYPVTFGAGTKLELKRTVAAPSVFIFPPSDEQLKSGTASVVCLLNNFYPREAKVQWKVDNALQSGNSQESVTEQDSKDSTYSLSSTLTLSKADYEKHKVYACEVTHQGLSSPVTKSFNRGEC
notes: Bispecific IgG1 made by controlled Fab-arm exchange; also called bsIgG1-huCD3-FEALxCD30-T215-FEAR
In the case of B3, in experiment [4], the “T-cell mediated cytotoxicity of Karpas-299 cells, IC50 average” value (“T-cell mediated cytotoxicity … IC50 average” for short) was 0.077 mg/L and the “T-cell mediated cytotoxicity of Karpas-299 cells, maximum lysis average” value is 42.8%. Moreover, the “EC50 (read off the curve)” value in experiment [1] was ~0.6 mg/L.

B4: IgG1-CD30-hAC10-FEAR (antibody, V domains shown)
VH: QVQLVQSGAEVKKPGASVKVSCKASGYTFTDYYITWVRQAPGQGLEWMGWIYPGSGNTKYNEKFKGRVTMTRDTSISTAYMELSRLRSDDTAVYYCANYGNYWFAYWGQGTLVTVSS
VL: DIVMTQSPDSLAVSLGERATINCKASQSVDFDGDSYMNWYQQKPGQPPKLLIYAASNLESGVPDRFSGSGSGTDFTLTISSLQAEDVAVYYCQQSNEDPWTFGQGTKVEIKR
notes: as for B1
Consider B4, for which the 50% effective concentration (EC50 (read off the curve)) in experiment [1] was ~0.1 mg/L.

B5: bsG1-huCD3-FEALxCD30-T405-FEAR (bispecific antibody, human IgG1, kappa, lambda)
heavy 1: not shown
light 1: not shown
heavy 2: QVQLQQIGAELVRPGASVKLSCKASGYTFNNYWINWVKQRPGQGLEWIGNIYPSDSRSNYNQKFKDKATLTVDKPSSTAYMQLSSPTSEDSAVYYCTLGSYWGQGTLVTVSAASTKGPSVFPLAPSSKSTSGGTAALGCLVKDYFPEPVTVSWNSGALTSGVHTFPAVLQSSGLYSLSSVVTVPSSSLGTQTYICNVNHKPSNTKVDKRVEPKSCDKTHTCPPCPAPEFEGGPSVFLFPPKPKDTLMISRTPEVTCVVVAVSHEDPEVKFNWYVDGVEVHNAKTKPREEQYNSTYRVVSVLTVLHQDWLNGKEYKCKVSNKALPAPIEKTISKAKGQPREPQVYTLPPSREEMTKNQVSLTCLVKGFYPSDIAVEWESNGQPENNYKTTPPVLDSDGSFFLYSRLTVDKSRWQQGNVFSCSVMHEALHNHYTQKSLSLSPG
light 2: DVVMTQTPLTLSVTIGQPASISCKSSQSLSDSDGKTYLNWLLQRPGQSPKRLIYLVSKLDSGVPDRFTGSGSGTDFTLKISRVEAEDLGVYYCWQGAHFPRTFGGGTKLEIKRTVAAPSVFIFPPSDEQLKSGTASVVCLLNNFYPREAKVQWKVDNALQSGNSQESVTEQDSKDSTYSLSSTLTLSKADYEKHKVYACEVTHQGLSSPVTKSFNRGEC
notes: Bispecific IgG1 made by controlled Fab-arm exchange; also called bsIgG1-huCD3-FEALxCD30-T405-FEAR
As for B5, in experiment [4], the “T-cell mediated cytotoxicity … IC50 average” value was determined as 0.078 mg/L and the “T-cell mediated cytotoxicity of Karpas-299 cells, maximum lysis average” value worked out at 41.7%. Besides, the “EC50 (read off the curve)” value in experiment [1] was ~1 mg/L. In addition, the “EC50 (read off the curve)” value in experiment [3] was ~0.7 mg/L.

B6: bsG1-huCD3-FEALxCD30-T408-FEAR (bispecific antibody, human IgG1, kappa, lambda)
heavy 1: not shown
light 1: not shown
heavy 2: QVQLQQPGAELVRPGASVKLSCKASGYTFTSYWINWVKQRPGQGLEWIGNIYPSDSYSNYNQKFKDKATLTVDKSSSTAYMQLSSPTSEDSAVYYCTLGSYWGQGTLVTVSAASTKGPSVFPLAPSSKSTSGGTAALGCLVKDYFPEPVTVSWNSGALTSGVHTFPAVLQSSGLYSLSSVVTVPSSSLGTQTYICNVNHKPSNTKVDKRVEPKSCDKTHTCPPCPAPEFEGGPSVFLFPPKPKDTLMISRTPEVTCVVVAVSHEDPEVKFNWYVDGVEVHNAKTKPREEQYNSTYRVVSVLTVLHQDWLNGKEYKCKVSNKALPAPIEKTISKAKGQPREPQVYTLPPSREEMTKNQVSLTCLVKGFYPSDIAVEWESNGQPENNYKTTPPVLDSDGSFFLYSRLTVDKSRWQQGNVFSCSVMHEALHNHYTQKSLSLSPG
light 2: DVVMTQTPLTLSVTIGQPASISCKSSQSLSDSDGKTYLNWLLQRPGQSPKRLIYLVSKLDSGVPDRFTGSGSGTDFTLKISRVEAEDLGVYYCWQGAHFPRTFGGGTKLEIKRTVAAPSVFIFPPSDEQLKSGTASVVCLLNNFYPREAKVQWKVDNALQSGNSQESVTEQDSKDSTYSLSSTLTLSKADYEKHKVYACEVTHQGLSSPVTKSFNRGEC
On to B6, for which, in experiment [4], the “T-cell mediated cytotoxicity … IC50 average” value was 0.226 mg/L and the “T-cell mediated cytotoxicity of Karpas-299 cells, maximum lysis average” value is 41.3%.

B7: IgG1-CD30-HRS-3-FEAR (antibody, V domains shown)
VH: QVQLQQSGAELARPGASVKMSCKASGYTFTTYTIHWVRQRPGHDLEWIGYINPSSGYSDYNQNFKGKTTLTADKSSNTAYMQLNSLTSEDSAVYYCARRADYGNYEYTWFAYWGQGTTVTVSS
VL: DIVMTQSPKFMSTSVGDRVTVTCKASQNVGTNVAWFQQKPGQSPKVLIYSASYRYSGVPDRFTGSGSGTDFTLTISNVQSEDLAEYFCQQYHTYPLTFGGGTKLEINR
notes: as for B1
B7: the “EC50 (read off the curve)” value in experiment [1] and in experiment [2] was ~0.2 mg/L each time.

B8: bsG1-huCD3-FEALxCD30-HeFi-I-FEAR (bispecific antibody, human IgG1, kappa, lambda)
heavy 1: not shown
light 1: not shown
heavy 2: EVKLVESGGGLVQPGGSLRLSCATSGFTFSDYYMNWVRQPPGKALEWLGFIRNKANGYTTEFSASVMGRFTISRDDSQSILYLQMNTLRAEDSATYYCARDPPYGNPHYYAMDYWGQGTSVTVSSASTKGPSVFPLAPSSKSTSGGTAALGCLVKDYFPEPVTVSWNSGALTSGVHTFPAVLQSSGLYSLSSVVTVPSSSLGTQTYICNVNHKPSNTKVDKRVEPKSCDKTHTCPPCPAPEFEGGPSVFLFPPKPKDTLMISRTPEVTCVVVAVSHEDPEVKFNWYVDGVEVHNAKTKPREEQYNSTYRVVSVLTVLHQDWLNGKEYKCKVSNKALPAPIEKTISKAKGQPREPQVYTLPPSREEMTKNQVSLTCLVKGFYPSDIAVEWESNGQPENNYKTTPPVLDSDGSFFLYSRLTVDKSRWQQGNVFSCSVMHEALHNHYTQKSLSLSPG
light 2: not shown
notes: Bispecific IgG1 made by controlled Fab-arm exchange; also called BsIgG1-huCD3-FEALxCD30-HeFi-I-FEAR
As for B8, the “T-cell mediated cytotoxicity … IC50 average” value in experiment [4] was 0.052 mg/L. Also, in experiment [4], the “T-cell mediated cytotoxicity of Karpas-299 cells, maximum lysis average” value came to 43%. Further, the “EC50 (read off the curve)” value in experiment [1] was ~0.3 mg/L; in experiment [2], ~0.3 mg/L; in experiment [3], ~0.1 mg/L.

B9: bsG1-huCD3-FEALxCD30-hAC10-FEAR (bispecific antibody, human IgG1, kappa, lambda)
heavy 1: not shown
light 1: not shown
heavy 2: QVQLVQSGAEVKKPGASVKVSCKASGYTFTDYYITWVRQAPGQGLEWMGWIYPGSGNTKYNEKFKGRVTMTRDTSISTAYMELSRLRSDDTAVYYCANYGNYWFAYWGQGTLVTVSSASTKGPSVFPLAPSSKSTSGGTAALGCLVKDYFPEPVTVSWNSGALTSGVHTFPAVLQSSGLYSLSSVVTVPSSSLGTQTYICNVNHKPSNTKVDKRVEPKSCDKTHTCPPCPAPEFEGGPSVFLFPPKPKDTLMISRTPEVTCVVVAVSHEDPEVKFNWYVDGVEVHNAKTKPREEQYNSTYRVVSVLTVLHQDWLNGKEYKCKVSNKALPAPIEKTISKAKGQPREPQVYTLPPSREEMTKNQVSLTCLVKGFYPSDIAVEWESNGQPENNYKTTPPVLDSDGSFFLYSRLTVDKSRWQQGNVFSCSVMHEALHNHYTQKSLSLSPG
light 2: not shown
notes: Bispecific IgG1 made by controlled Fab-arm exchange
Consider B9, for which the “EC50 (read off the curve)” value in experiment [1] and in experiment [2] was ~0.2 mg/L each time.

These data come from US20260234255A1 (Genmab, published 2026).
